T1: human FcγRIIaR extracellular domain, His-tagged (human, UniProt P12318 34-217)
T1 construct: also called human FcγRIIa (type R); FcgRIIaR
T1 chain: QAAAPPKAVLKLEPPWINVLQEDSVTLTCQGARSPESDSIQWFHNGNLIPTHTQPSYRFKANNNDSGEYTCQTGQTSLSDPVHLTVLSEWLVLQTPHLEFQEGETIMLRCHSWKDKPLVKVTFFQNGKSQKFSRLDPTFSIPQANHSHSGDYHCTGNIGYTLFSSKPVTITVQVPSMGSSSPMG

T2: human FcγRIIb extracellular domain, His-tagged (human, UniProt P31994 43-217)
T2 construct: also called FcgRIIb (human)
T2 sequence: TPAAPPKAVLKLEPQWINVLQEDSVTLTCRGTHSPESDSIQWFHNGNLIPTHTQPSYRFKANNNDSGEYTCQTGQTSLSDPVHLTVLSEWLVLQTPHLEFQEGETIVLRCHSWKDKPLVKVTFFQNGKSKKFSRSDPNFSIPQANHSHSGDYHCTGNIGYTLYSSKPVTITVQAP

T3: cynomolgus monkey FcγRIIIaS extracellular domain, His-tagged (cynomolgus monkey, UniProt Q8SPW2 21-206 at identity 1.00))
T3 construct: also called cyno FcγRIIIaS; cynoFcγRIIIaS
T3 chain: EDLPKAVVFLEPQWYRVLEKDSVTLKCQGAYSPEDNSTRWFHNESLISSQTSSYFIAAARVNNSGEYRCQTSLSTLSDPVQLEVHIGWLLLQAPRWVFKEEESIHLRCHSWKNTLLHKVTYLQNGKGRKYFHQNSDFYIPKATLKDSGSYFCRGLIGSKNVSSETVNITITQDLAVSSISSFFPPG

T4: cynomolgus monkey FcγRIIa2 extracellular domain, His-tagged (cynomolgus monkey)
T4 construct: also called cyno FcγRIIa2; cynoFcgRIIa2
T4 chain: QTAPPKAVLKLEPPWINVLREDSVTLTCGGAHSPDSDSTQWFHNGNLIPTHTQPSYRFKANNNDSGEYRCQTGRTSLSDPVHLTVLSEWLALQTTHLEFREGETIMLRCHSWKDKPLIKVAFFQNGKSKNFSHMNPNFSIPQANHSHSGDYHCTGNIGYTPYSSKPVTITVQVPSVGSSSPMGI

T5: human FcγRIIaH extracellular domain, His-tagged (human, UniProt P12318 34-217)
T5 construct: also called human FcγRIIa (type H); FcgRIIaH
T5 sequence: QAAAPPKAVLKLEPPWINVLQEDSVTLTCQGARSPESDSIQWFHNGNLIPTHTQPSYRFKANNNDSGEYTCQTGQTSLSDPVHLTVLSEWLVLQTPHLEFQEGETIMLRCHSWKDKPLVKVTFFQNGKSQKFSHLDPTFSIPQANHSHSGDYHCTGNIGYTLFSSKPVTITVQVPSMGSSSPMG

T6: cynomolgus monkey FcγRIIa3 extracellular domain, His-tagged (cynomolgus monkey)
T6 construct: also called cyno FcγRIIa3; cynoFcgRIIa3
T6 chain: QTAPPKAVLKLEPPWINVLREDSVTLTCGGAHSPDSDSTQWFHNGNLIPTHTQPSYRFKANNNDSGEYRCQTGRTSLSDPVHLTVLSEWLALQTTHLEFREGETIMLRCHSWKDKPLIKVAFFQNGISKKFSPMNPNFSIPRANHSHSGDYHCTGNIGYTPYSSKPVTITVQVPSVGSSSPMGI

T7: cynomolgus monkey FcγRIIa1 extracellular domain, His-tagged (cynomolgus monkey)
T7 construct: also called cyno FcγRIIa1; cynoFcgRIIa1
T7 chain: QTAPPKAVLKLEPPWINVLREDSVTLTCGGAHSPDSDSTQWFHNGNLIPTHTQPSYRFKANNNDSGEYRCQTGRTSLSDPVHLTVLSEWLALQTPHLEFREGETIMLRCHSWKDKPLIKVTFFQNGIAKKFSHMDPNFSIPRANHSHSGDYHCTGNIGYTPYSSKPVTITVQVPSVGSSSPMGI


Columns and labels:
Assay in all cases: SPR, antibody captured, FcgR analyte
[1] = molecular target: T1, human FcγRIIaR extracellular domain, …
[2] = molecular target: T8, human FcγRIIIaV extracellular domain, His-tagged (human, UniProt P08637 17-208)
T8 construct: also called FcgRIIIaV
T8 sequence (P08637 17-208 F176V): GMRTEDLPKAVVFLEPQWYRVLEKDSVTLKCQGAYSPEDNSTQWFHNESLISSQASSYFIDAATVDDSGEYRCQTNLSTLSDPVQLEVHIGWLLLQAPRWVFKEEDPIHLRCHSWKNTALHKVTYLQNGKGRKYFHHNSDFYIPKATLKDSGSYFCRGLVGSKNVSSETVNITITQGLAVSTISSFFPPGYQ

[3] = molecular target: T2, human FcγRIIb extracellular domain, …
[4] = molecular target: T3, cynomolgus monkey FcγRIIIaS …
[5] = molecular target: T4, cynomolgus monkey FcγRIIa2 …
[6] = molecular target: T5, human FcγRIIaH extracellular domain, …
[7] = molecular target: T6, cynomolgus monkey FcγRIIa3 …
[8] = molecular target: T7, cynomolgus monkey FcγRIIa1 …

Kd [1] | Kd [2] | Kd [3] | Kd [4] | Kd [5] | Kd [6] | Kd [7] | Kd [8] | Binder
910 nM | 370 nM | 2600 nM | 200 nM | 4500 nM | 1100 nM | 9600 nM | 3800 nM | M103205H795-MY037/M103202L889-SK1 (antibody, human IgG1, kappa, Substitution put into M103205H795-SG1) heavy: not shown light: DIVMTQSPATLSLSPGERATLSCTSSQSVYHANWLSWFQQKPGQPPKLLIYWASTLAYGVPSRFSGSGSGTDFTLTISSLQPEDAATYYCAGGYGGGRYAFGQGTKVEIKRTVAAPSVFIFPPSDEQLKSGTASVVCLLNNFYPREAKVQWKVDNALQSGNSQESVTEQDSKDSTYSLSSTLTLSKADYEKHKVYACEVTHQGLSSPVTKSFNRGEC
960 nM | 690 nM | 4800 nM | 400 nM | 2500 nM | 520 nM | 12000 nM | 2500 nM | M103205H795-MY014/M103202L889-SK1 (antibody, human IgG1, kappa, Substitution put into M103205H795-SG1) heavy: not shown light: DIVMTQSPATLSLSPGERATLSCTSSQSVYHANWLSWFQQKPGQPPKLLIYWASTLAYGVPSRFSGSGSGTDFTLTISSLQPEDAATYYCAGGYGGGRYAFGQGTKVEIKRTVAAPSVFIFPPSDEQLKSGTASVVCLLNNFYPREAKVQWKVDNALQSGNSQESVTEQDSKDSTYSLSSTLTLSKADYEKHKVYACEVTHQGLSSPVTKSFNRGEC
920 nM | 900 nM | 3300 nM | 470 nM | 3500 nM | 1200 nM | 52000 nM | 3200 nM | M103205H795-MY044/M103202L889-SK1 (antibody, human IgG1, kappa, Substitution put into M103205H795-SG1) heavy: not shown light: DIVMTQSPATLSLSPGERATLSCTSSQSVYHANWLSWFQQKPGQPPKLLIYWASTLAYGVPSRFSGSGSGTDFTLTISSLQPEDAATYYCAGGYGGGRYAFGQGTKVEIKRTVAAPSVFIFPPSDEQLKSGTASVVCLLNNFYPREAKVQWKVDNALQSGNSQESVTEQDSKDSTYSLSSTLTLSKADYEKHKVYACEVTHQGLSSPVTKSFNRGEC
1200 nM | 480 nM | 3100 nM | 260 nM | 4100 nM | 1800 nM | 7400 nM | 4000 nM | M103205H795-MY041/M103202L889-SK1 (antibody, human IgG1, kappa, Substitution put into M103205H795-SG1) heavy: not shown light: DIVMTQSPATLSLSPGERATLSCTSSQSVYHANWLSWFQQKPGQPPKLLIYWASTLAYGVPSRFSGSGSGTDFTLTISSLQPEDAATYYCAGGYGGGRYAFGQGTKVEIKRTVAAPSVFIFPPSDEQLKSGTASVVCLLNNFYPREAKVQWKVDNALQSGNSQESVTEQDSKDSTYSLSSTLTLSKADYEKHKVYACEVTHQGLSSPVTKSFNRGEC
1800 nM | 220 nM | 9100 nM | 220 nM | 5000 nM | 1200 nM | 18000 nM | 3900 nM | M103205H795-MY010/M103202L889-SK1 (antibody, human IgG1, kappa, Substitution put into M103205H795-SG1) heavy: not shown light: DIVMTQSPATLSLSPGERATLSCTSSQSVYHANWLSWFQQKPGQPPKLLIYWASTLAYGVPSRFSGSGSGTDFTLTISSLQPEDAATYYCAGGYGGGRYAFGQGTKVEIKRTVAAPSVFIFPPSDEQLKSGTASVVCLLNNFYPREAKVQWKVDNALQSGNSQESVTEQDSKDSTYSLSSTLTLSKADYEKHKVYACEVTHQGLSSPVTKSFNRGEC
1600 nM | 240 nM | 2900 nM | 140 nM | 4000 nM | 1600 nM | 6800 nM | 5700 nM | M103205H795-MY045/M103202L889-SK1 (antibody, human IgG1, kappa, Substitution put into M103205H795-SG1) heavy: not shown light: DIVMTQSPATLSLSPGERATLSCTSSQSVYHANWLSWFQQKPGQPPKLLIYWASTLAYGVPSRFSGSGSGTDFTLTISSLQPEDAATYYCAGGYGGGRYAFGQGTKVEIKRTVAAPSVFIFPPSDEQLKSGTASVVCLLNNFYPREAKVQWKVDNALQSGNSQESVTEQDSKDSTYSLSSTLTLSKADYEKHKVYACEVTHQGLSSPVTKSFNRGEC

From patent US20200317768A1 (published 2020)
